According to patent publication US11214614B2, “LTBP complex-specific inhibitors of TGFβ and uses thereof” (Scholar Rock, Inc., priority 2019, dated 2022):

Tests used:
huLTBP1 proTGFβ1 = huLTBP1 proTGFβ1 (Homo sapiens, UniProt P01137+Q14766); assay: SPR (Biacore 8K) monovalent binding kinetics of Fabs, biotinylated antigen captured; design: biotin (complex biotinylated); settings: for KD of Fab fragments / Binding of human Fabs for huLTBP1 proTGFβ1 and huLTBP3 proTGFβ1 (FIGS. 23, 24): SPR; for KD of Fab fragments: antigen not given; for Monovalent affinities (FIGS. 23, 24): figure legends
huLTBP1 proTGFβ1, sequence (P01137 30-390): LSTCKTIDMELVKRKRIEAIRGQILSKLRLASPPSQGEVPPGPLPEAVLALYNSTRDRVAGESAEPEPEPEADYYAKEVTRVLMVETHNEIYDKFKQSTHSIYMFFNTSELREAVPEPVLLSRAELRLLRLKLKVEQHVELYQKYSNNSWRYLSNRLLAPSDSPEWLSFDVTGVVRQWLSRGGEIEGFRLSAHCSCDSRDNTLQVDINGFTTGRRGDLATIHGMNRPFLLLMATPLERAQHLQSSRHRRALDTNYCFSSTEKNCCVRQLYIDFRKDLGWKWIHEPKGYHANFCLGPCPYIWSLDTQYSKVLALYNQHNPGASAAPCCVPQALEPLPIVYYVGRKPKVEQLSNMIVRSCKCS
huLTBP1 proTGFβ1, sequence (Q14766 347-1721 limits assumed): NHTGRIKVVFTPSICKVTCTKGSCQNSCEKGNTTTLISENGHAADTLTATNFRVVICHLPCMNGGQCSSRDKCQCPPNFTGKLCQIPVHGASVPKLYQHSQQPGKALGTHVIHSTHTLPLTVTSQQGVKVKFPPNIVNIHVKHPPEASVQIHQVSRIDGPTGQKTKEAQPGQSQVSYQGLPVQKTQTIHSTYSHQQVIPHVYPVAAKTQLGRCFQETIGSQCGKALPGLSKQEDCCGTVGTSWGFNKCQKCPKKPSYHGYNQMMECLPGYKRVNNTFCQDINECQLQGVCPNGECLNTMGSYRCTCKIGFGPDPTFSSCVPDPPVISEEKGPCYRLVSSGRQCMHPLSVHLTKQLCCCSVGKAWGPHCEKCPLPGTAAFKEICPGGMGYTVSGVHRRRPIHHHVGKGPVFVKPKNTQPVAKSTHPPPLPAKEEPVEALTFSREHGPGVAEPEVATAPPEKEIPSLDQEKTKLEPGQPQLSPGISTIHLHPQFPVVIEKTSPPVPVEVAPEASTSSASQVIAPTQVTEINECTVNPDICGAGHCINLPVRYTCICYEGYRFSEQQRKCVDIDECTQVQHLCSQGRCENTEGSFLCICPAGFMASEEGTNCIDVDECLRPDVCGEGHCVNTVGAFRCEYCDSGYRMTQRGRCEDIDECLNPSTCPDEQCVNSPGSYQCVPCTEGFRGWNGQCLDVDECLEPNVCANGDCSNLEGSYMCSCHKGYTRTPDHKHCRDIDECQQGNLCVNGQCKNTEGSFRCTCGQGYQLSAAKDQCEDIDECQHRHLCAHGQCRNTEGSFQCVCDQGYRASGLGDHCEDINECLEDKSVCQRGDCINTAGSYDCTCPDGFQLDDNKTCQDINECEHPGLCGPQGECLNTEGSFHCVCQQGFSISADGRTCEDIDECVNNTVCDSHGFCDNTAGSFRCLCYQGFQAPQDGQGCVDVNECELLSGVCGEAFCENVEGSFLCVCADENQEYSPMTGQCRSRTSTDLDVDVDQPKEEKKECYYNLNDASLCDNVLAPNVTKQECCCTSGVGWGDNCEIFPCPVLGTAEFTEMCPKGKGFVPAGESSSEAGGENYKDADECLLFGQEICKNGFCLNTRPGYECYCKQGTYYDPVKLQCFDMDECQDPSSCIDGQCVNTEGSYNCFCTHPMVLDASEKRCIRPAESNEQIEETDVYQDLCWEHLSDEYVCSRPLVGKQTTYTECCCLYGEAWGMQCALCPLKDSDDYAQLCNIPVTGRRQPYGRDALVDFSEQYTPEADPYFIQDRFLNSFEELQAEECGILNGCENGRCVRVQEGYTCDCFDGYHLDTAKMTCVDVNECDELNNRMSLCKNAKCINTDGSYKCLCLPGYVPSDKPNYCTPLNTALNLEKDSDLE
Method in brief: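 Biotinylated proTGFβ1 complexes (10 nM) captured on Biotin CAPture chip; Fabs injected at 10, 5, 2.5, 1.25, 0.625 nM (0 nM reference), 120 s contact, 900 s dissociation, multi-cycle with regeneration. HBS-EP+ pH 7.4; global 1:1 fit for ka, kd, KD.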

[1] = tested on: male C57BL/6J mice on CDHFD (liver fibrosis); assay: Choline-deficient high fat diet (CDHFD) model of mouse NASH, liver hydroxyproline content; format: in vivo; settings: 15 mg/kg twice a week i.p., weeks 4 through 12 of CDHFD
Description: The Choline deficient high fat diet (CDHFD) is an established diet-induced model of Non-Alcoholic steatohepatitis (NASH). In this model, male C57BL/6J mice are fed a choline deficient, 0.10% Methionine, high fat diet for 12 weeks. Three to six weeks after the start of the CDHFD, activation of pro-fibrotic processes can be detected through increased expression of α-smooth muscle actin (α-SMA) protein, a marker for activation of hepatic stellate cells, and elevated tissue hydroxyproline content reflecting increased collagen synthesis and deposition (Matsumoto et. al, Int J Exp Pathol. 2013 April; 94(2):93-103).
LTBP complex-specific antibodies were tested for their ability to inhibit and/or reduce the extent of liver fibrosis in mice in the CDHFD model as follows. An outline of the study is shown below in Table 21.
Animals in the test cohorts were on the CDHFD for the duration of the study. A separate cohort of mice (Group 1) were administered a regular chow diet as a study control. Antibodies SR-AB42 and SR-AB31 were administered to mice by intraperitoneal (i.p.) injection beginning at 4 weeks post start of the CDHFD. Animals were dosed at antibody test concentrations 15 mg/kg twice a week (i.e., 30 mg/kg/week) for a test duration of 8 weeks (i.e., weeks 4 through 12). […] Endpoint readout was hydroxyproline content. […]

[2] = tested on: proTGFβ1 presented by endogenous LTBP1/3 in LN229 cells; assay: Endogenous LTBP caga assay: LN229 cells transfected with human proTGFβ1 only, CAGA12 luciferase reporter cells; format: cell-based; settings: endogenous presenting molecules
proTGFβ1 presented by endogenous LTBP1/3 in LN229 cells, sequence (P01137 30-390): as the sequence (P01137 30-390) above

proTGFβ1 C4S = proTGFβ1 C4S (Homo sapiens, UniProt P01137, C33S); assay: Octet binding of immobilized cycle 2 antibodies to C4S antigen; settings: antibody immobilized (loading sample)
proTGFβ1 C4S, sequence (P01137 30-390 C33S): as the sequence (P01137 30-390) above, with C4S counted along it
Description: (§1) A modified proTGFβ1 complex (proTGFβ1 C4S) in which the cysteine residue at position 4 of the pro-domain has been substituted with a serine residue (described in WO 2014/182676) was used to assess antibody binding to C4S antigen by Octet. Cycle 2 antibodies were immobilized and tested against 3 antigens. As shown in the Tables below, robust antibody binding to LTBP-1 proTGFβ1 antigen (Table 23) and proTGFβ1C4S antigen was observed (Table 24), while binding to LRRC33 proTGFβ1 antigen was not observed (Table 25).

huLRRC33 proTGFβ1 = huLRRC33 proTGFβ1 (Homo sapiens, UniProt P01137); assay: Octet binding of immobilized cycle 2 antibodies; design: modified human kappa light chain signal peptide (N); Histidine tag (C); settings: antibody immobilized (loading sample)
huLRRC33 proTGFβ1, sequence (P01137 30-390): as the sequence (P01137 30-390) above
huLRRC33 proTGFβ1, sequence (Q86YC3 with tags, fused parts or gaps partner limits assumed): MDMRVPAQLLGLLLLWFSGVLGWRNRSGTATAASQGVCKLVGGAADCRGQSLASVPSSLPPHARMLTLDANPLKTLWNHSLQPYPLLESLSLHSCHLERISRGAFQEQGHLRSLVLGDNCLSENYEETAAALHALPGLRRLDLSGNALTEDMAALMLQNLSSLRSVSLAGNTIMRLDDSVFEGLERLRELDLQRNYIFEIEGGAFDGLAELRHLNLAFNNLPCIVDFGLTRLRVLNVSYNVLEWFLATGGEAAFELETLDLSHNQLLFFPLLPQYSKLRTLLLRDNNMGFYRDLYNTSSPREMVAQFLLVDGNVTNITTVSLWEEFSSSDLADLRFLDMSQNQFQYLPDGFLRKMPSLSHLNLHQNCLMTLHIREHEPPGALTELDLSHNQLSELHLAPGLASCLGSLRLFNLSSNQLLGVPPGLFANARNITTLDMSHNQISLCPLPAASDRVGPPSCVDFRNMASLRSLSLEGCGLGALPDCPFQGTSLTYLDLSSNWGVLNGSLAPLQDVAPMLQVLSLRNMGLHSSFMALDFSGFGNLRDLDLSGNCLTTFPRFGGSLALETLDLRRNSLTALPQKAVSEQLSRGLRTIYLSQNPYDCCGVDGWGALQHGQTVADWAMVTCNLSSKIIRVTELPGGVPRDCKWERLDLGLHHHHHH
Description: as §1

B1: SR-AB63: cycle 3 antibody, lineage SR-AB26; CDRs SEQ ID NO: 292-297; HCVR SEQ ID NO: 360, LCVR SEQ ID NO: 361 (antibody, V domains shown)
VH: QLQLQESGPGLVKPSETLSLTCTVSGGSIRSSSYYWGWIRQPPGKGLEWIGSISYSATTYYNPSLKSRVTISVDTSKNQFSLKLSSVTAADTAVYYCAGDPSYDSIAGMQVWGQGTTVTVSS
VL: DIQLTQSPSSLSASVGDRVTITCRASQSISSYLNWYQQKPGKAPKLLIYAASNLQSGVPSRFSGSGSGTDFTLTISSLQPEDFATYYCQQSFDWPLTFGGGTKVEIK
- KD of Fab fragments (huLTBP1 proTGFβ1): sub-nanomolar
- Binding of human Fabs for huLTBP1 proTGFβ1 and huLTBP3 proTGFβ1 (FIGS. 23, 24) (huLTBP1 proTGFβ1): context-selective binding
- Monovalent affinities (FIGS. 23, 24) (huLTBP1 proTGFβ1): picomolar monovalent affinities

B2: SR-AB42: cycle 3 antibody, lineage SR-AB23; CDRs SEQ ID NO: 166-171; HCVR SEQ ID NO: 318, LCVR SEQ ID NO: 319 (antibody, V domains shown)
VH: QVQLVESGGGVVQPGRSLRLSCAASGFTFRSYVMHWVRQAPGKGLEWVAVISHEGSLKYYADSVKGRFTISRDNSKNTLYLQMNSLRAEDTAVYYCARPRIAARRGGFGYWGQGTLVTVSS
VL: NFMLTQPHSVSESPGKTVTISCTRSSGNIDNNYVQWYQQRPGSSPTTVIYEDNQRPSGVPDRFSGSIDSSSNSASLTISGLKTEDEADYYCQSYDYDTQGVVFGGGTKLTVL
- Hydroxyproline (HYP) in liver tissue [1]: inhibited the increase in HYP
- KD of Fab fragments (huLTBP1 proTGFβ1): sub-nanomolar
- Binding of human Fabs for huLTBP1 proTGFβ1 and huLTBP3 proTGFβ1 (FIGS. 23, 24) (huLTBP1 proTGFβ1): context-selective binding
- Monovalent affinities (FIGS. 23, 24) (huLTBP1 proTGFβ1): picomolar monovalent affinities

B3: SR-AB23: second-round (CDR-H3 mutagenesis) antibody, lineage SR-AB14; CDRs SEQ ID NO: 116-121 (antibody, V domains shown)
VH: QVQLVESGGGVVQPGRSLRLSCAASGFTFRSYVMHWVRQAPGKGLEWVAVISHEGSLKYYADSVKGRFTISRDNSKNTLYLQMNSLRAEDTAVYYCARPRIAARRGGFGYWGQGTLVTVSS
VL: NFMLTQPHSVSESPGKTVTISCTRSSGNIDNNYVQWYQQRPGSSPTTVIYEDNQRPSGVPDRFSGSIDSSSNSASLTISGLKTEDEADYYCQSYDSDNQGVVFGGGTKLTVL
- Inhibition of TGFβ1 activation (TGFβ activity, luciferase) [2]: improved potency
- Response, binding to human TGFb1 C4S (proTGFβ1 C4S): 0.2263 nm
- Response, binding to human LRRC33 proTGFb1 (huLRRC33 proTGFβ1): 0.0233 nm

B4: SR-AB22: second-round (CDR-H3 mutagenesis) antibody, lineage SR-AB14; CDRs SEQ ID NO: 108-113 (antibody, V domains shown)
VH: QVQLVESGGGVVQPGRSLRLSCAASGFTFRSYVMHWVRQAPGKGLEWVAVISHEGSLKYYADSVKGRFTISRDNSKNTLYLQMNSLRAEDTAVYYCAVPRIAARRGGFGYWGQGTLVTVSS
VL: NFMLTQPHSVSESPGKTVTISCTRSSGNIDNNYVQWYQQRPGSSPTTVIYEDNQRPSGVPDRFSGSIDSSSNSASLTISGLKTEDEADYYCQSYDSDNQGVVFGGGTKLTVL
- Inhibition of TGFβ1 activation (TGFβ activity, luciferase) [2]: improved potency
- Response, binding to human TGFb1 C4S (proTGFβ1 C4S): 0.2937 nm
- Response, binding to human LRRC33 proTGFb1 (huLRRC33 proTGFβ1): 0.1329 nm
